Article doi:10.1101/2019.12.13.867358 (bioRxiv, 2019)

Target: T1, Smc4 (S. cerevisiae, UniProt Q12267 1-1418)
T1 sequence (looked up): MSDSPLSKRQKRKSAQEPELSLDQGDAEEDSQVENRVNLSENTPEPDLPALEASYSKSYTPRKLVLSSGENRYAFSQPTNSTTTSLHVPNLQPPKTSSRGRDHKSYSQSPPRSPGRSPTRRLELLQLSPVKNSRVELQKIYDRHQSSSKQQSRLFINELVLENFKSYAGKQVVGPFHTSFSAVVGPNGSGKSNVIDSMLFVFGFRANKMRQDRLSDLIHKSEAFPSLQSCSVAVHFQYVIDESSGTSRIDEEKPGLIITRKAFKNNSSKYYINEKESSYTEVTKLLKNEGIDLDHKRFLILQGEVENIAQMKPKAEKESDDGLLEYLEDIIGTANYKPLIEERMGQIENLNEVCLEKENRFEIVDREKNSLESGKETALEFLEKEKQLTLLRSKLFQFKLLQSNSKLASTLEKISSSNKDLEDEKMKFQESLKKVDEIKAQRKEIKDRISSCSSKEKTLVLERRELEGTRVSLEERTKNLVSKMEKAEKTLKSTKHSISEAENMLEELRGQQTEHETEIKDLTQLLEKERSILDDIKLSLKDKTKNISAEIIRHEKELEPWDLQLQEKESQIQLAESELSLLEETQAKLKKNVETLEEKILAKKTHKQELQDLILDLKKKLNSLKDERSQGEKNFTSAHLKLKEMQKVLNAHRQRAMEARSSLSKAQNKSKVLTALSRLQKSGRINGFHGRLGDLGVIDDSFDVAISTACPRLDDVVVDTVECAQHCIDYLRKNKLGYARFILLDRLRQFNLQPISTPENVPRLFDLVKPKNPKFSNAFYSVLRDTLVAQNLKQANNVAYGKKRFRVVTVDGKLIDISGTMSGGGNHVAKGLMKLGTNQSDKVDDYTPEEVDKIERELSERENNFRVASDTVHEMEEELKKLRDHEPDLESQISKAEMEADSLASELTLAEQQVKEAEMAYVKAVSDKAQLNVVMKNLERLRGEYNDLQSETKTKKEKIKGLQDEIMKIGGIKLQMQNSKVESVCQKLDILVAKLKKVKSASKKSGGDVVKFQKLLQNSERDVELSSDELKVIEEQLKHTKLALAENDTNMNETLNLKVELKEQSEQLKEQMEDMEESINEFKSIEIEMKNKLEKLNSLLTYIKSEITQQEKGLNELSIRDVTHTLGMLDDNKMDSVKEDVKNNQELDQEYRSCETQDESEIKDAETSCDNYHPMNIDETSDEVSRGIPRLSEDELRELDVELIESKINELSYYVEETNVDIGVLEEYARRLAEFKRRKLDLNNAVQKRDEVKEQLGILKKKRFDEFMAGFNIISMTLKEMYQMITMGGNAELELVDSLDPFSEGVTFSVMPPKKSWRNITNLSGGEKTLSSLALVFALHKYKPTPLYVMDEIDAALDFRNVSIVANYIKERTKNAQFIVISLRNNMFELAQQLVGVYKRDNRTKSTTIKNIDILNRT
Test: AFM imaging

B1: Smc2 (natural protein, S. cerevisiae, UniProt P38989 1-1170, looked up)
chain: MKVEELIIDGFKSYATRTVITDWDPQFNAITGLNGSGKSNILDAICFVLGIASMSTVRASSLQDLIYKRGQAGVTKASVTIVFDNTDKSNSPIGFTNSPQISVTRQVVLGGTSKYLINGHRAPQQSVLQLFQSVQLNINNPNFLIMQGKITKVLNMKPSEILSLIEEAAGTKMFEDRREKAERTMSKKETKLQENRTLLTEEIEPKLEKLRNEKRMFLEFQSTQTDLEKTERIVVSYEYYNIKHKHTSIRETLENGETRMKMLNEFVKKTSEEIDSLNEDVEEIKLQKEKELHKEGTISKLENKENGLLNEISRLKTSLSIKVENLNDTTEKSKALESEIASSSAKLIEKKSAYANTEKDYKMVQEQLSKQRDLYKRKEELVSTLTTGISSTGAADGGYNAQLAKAKTELNEVSLAIKKSSMKMELLKKELLTIEPKLKEATKDNELNVKHVKQCQETCDKLRARLVEYGFDPSRIKDLKQREDKLKSHYYQTCKNSEYLKRRVTNLEFNYTKPYPNFEASFVHGVVGQLFQIDNDNIRYATALQTCAGGRLFNVVVQDSQTATQLLERGRLRKRVTIIPLDKIYTRPISSQVLDLAKKIAPGKVELAINLIRFDESITKAMEFIFGNSLICEDPETAKKITFHPKIRARSITLQGDVYDPEGTLSGGSRNTSESLLVDIQKYNQIQKQIETIQADLNHVTEELQTQYATSQKTKTIQSDLNLSLHKLDLAKRNLDANPSSQIIARNEEILRDIGECENEIKTKQMSLKKCQEEVSTIEKDMKEYDSDKGSKLNELKKELKLLAKELEEQESESERKYDLFQNLELETEQLSSELDSNKTLLHNHLKSIESLKLENSDLEGKIRGVEDDLVTVQTELNEEKKRLMDIDDELNELETLIKKKQDEKKSSELELQKLVHDLNKYKSNTNNMEKIIEDLRQKHEFLEDFDLVRNIVKQNEGIDLDTYRERSKQLNEKFQELRKKVNPNIMNMIENVEKKEAALKTMIKTIEKDKMKIQETISKLNEYKRETLVKTWEKVTLDFGNIFADLLPNSFAKLVPCEGKDVTQGLEVKVKLGNIWKESLIELSGGQRSLIALSLIMALLQFRPAPMYILDEVDAALDLSHTQNIGHLIKTRFKGSQFIVVSLKEGMFANANRVFRTRFQDGTSVVSIM
  binding result: binds
